Test in all cases: LC-MS of Fabs digested from co-expressed IgG
Test [1] has as its target panitumumab heavy chain, WT CH1, hole CH3 (human).
Test [2] addresses ustekinumab heavy chain, CH1 design 1039, knob CH3 (human).
Test [3] deals with ustekinumab heavy chain, WT CH1, knob CH3 (human).
In test [4] the target is panitumumab heavy chain, CH1 design 1039, hole CH3 (human).
Test [5] concerns the target panitumumab heavy chain, CH1 design 1443, hole CH3 (human).
The target of test [6] is panitumumab heavy chain, CH1 design 2529, hole CH3 (human).
Test [7] has as its target panitumumab heavy chain, CH1 design 367, hole CH3 (human).
The target of test [8] is panitumumab heavy chain, CH1 design 767, hole CH3 (human).
Test [9] deals with panitumumab heavy chain, CH1 of designs 1148 and 454 (L145S), hole CH3 (human).
The target in test [10] is panitumumab heavy chain, CH1 of designs 1328 and 838 (G166K, T187K), hole CH3 (human).

panitumumab light chain, WT Cκ: the % of observed Fabs (co-expressed: m3) in test [1] amounted to 41%; in test [3], 21%. For the same substance, the % of observed Fabs (co-expressed: m38) in test [1] came out at 54%. Also, the % of observed Fabs (co-expressed: m40) in test [2] was 18%.

For ustekinumab light chain, WT Cκ, the % of observed Fabs (co-expressed: m3) in test [4] stood at 10%. The substance further had a % of observed Fabs (co-expressed: m3) in test [5] of 8%. Besides, the % of observed Fabs (co-expressed: m11) in [6] was 18%. Further, the % of observed Fabs (co-expressed: m13) in test [7] was found to be 8%. This substance also came in with a % of observed Fabs (co-expressed: m25) in [8] of 10%. The % of observed Fabs (co-expressed: m34) in [9] stood at 10%. The % of observed Fabs (co-expressed: m17) in [10] was determined as 6%. This substance registered a % of observed Fabs (co-expressed: m3) in test [1] of 8%. In [3], this substance gave a % of observed Fabs (co-expressed: m7) of 50%, a % of observed Fabs (co-expressed: m17) of 50%, a % of observed Fabs (co-expressed: m21) of 41% and a % of observed Fabs (co-expressed: m23) of 45%. In [3], this substance had a % of observed Fabs (co-expressed: m25) of 41%, a % of observed Fabs (co-expressed: m27) of 40%, a % of observed Fabs (co-expressed: m30) of 40% and a % of observed Fabs (co-expressed: m32) of 41%. Further, in test [3], the % of observed Fabs (co-expressed: m36) worked out at 45%.
